In patent publication US20230391843A1, “COMPOSITION AND METHOD FOR CONTROLLING HEAT GENERATION WITHIN ORGANISM, AND USE” (GUANGDONG JIANTEBO BIOTECHNOLOGY CO., LTD., priority 2021, published 2023):
Entries after “also recorded” stand apart in the source; their conditions may differ.

Columns and labels:
primary beige adipocytes = primary beige adipocytes treated with IL-27 in vitro, immunoblot analysis; type: cell-based, mouse; conditions: rmIL-27 100 ng/ml
Procedure: A whole cell lysate or tissue lysate was extracted using an RIPA lysis buffer (Beyotime, China) supplemented with a complete protease inhibitor (Roche) and a phosphatase inhibitor Cocktail 2 (P5726, Sigma), and a supernatant was used for subsequent analysis. Proteins were diluted in a Loading dye (BL502A, Bio-sharp), heated at 95° C. for 10 min, and separated on 4-12% polyacrylamide gel. The proteins were transferred to polyvinylidene fluoride membranes and western blot experiments were performed with the commercial antibodies and methods-reagents mentioned in the drawing.
Inguinal subcutaneous adipose tissue was minced and digested at 37° C. for 45 min in PBS containing collagenase II (1 mg/ml), and a tissue suspension was filtered by a 100 μm cell filter and centrifuged at 600 g for 5 min, such that a stromal vascular fraction (SVF) was granulated. After granulation, the product was further filtered by a 40 μm cell filter and placed on a collagen-coated plate. After overnight culturing, a supernatant containing non-adherent cells was removed. Precursor adipocytes were grown in DMEM containing 10% FBS and insulin (5 μg/ml) for fusion. The product was treated for 2 days with dexamethasone (1 μM), 3-isobutyl-1-methylxanthine (IBMX, 0.5 mM), insulin (5 μg/ml), indomethacin (125 nM) and rosiglitazone (1 μM) to induce differentiation of the fused cells, and then independently treated for another 5 days with insulin (5 μg/ml) and triiodothyronine (T3, 1 nM). On day 7, the cells were pretreated overnight with and without IL-27 (100 ng/ml) and then treated with isoproterenol (10 μM) or forskolin (10 μM) for 4-6 hours. IL-27 (100 ng/ml) was added for treatment for 0-120 min on day 7 for protein phosphorylation analysis, or for 12-24 h for protein expression level detection. For signal inhibition experiments, either the STAT3 inhibitor (C188-9, 10 μM) or the p38 MAPK inhibitor (SB203580, 10 μM) was added to a medium 0.5 h prior to and during IL-27 treatment.
FIG. 3A-FIG. 3M show promotion of heat generation by IL-27. As for FIG. 3A: primary beige adipocytes were generated in vitro from an SVF of WT SCW and then treated with rmIL-27 (100 ng/ml) or PBS for 24 hours. Cells were lysed and a protein extract was used for immunoblot analysis. As for FIG. 3B: immunoblot analysis of phosphorylation of the protein in the WT primary beige adipocyte extract treated with the rmIL-27 (100 ng/ml) for a specified time was shown. As for FIG. 3C: the primary beige adipocytes derived from WT SCW were generated in vitro. The STAT3 inhibitor (C188-9, 10 μM) or p38 MAPK inhibitor (SB203580, 10 μM) was added to a medium 0.5 hours prior to culturing and in duration of rmIL-27 treatment (100 ng/ml for 12 hours). Cell lysis and the representative immunoblot of the protein extract were shown. As for FIG. 3D-FIG. 3J: WT mice were fed with HFD for 32 weeks and then injected intraperitoneally. Every other day, rmIL-27 (100 μg/kg) or PBS was injected for 15 days. As for FIG. 3D: body weight was recorded at specified time points (n=8). As for FIG. 3E: after rmIL-27 treatment for 15 days, adipose tissue was collected and weighed (n=6-8) for a glucose tolerance test (FIG. 3F, n=8) and an insulin tolerance test (FIG. 3G, n=8). As for FIG. 3H: the mice were fasted overnight and then injected intraperitoneally with 0.75 U/kg insulin (15 min). Immunoblot analysis of pAKT (pSer473) in epididymal fat was performed. As for FIG. 3I: after rmIL-27 treatment for 15 days, oil-red O liver tissue staining was performed, with the scale=50 μm. As for FIG. 3J-FIG. 3M: UCP1-KO mice were fed with HFD for 20 weeks and then injected intraperitoneally with rmIL-27 (100 μg/kg) or PBS every other day for 15 days. As for FIG. 3J: body weight was recorded at specified time points (n=6). As for FIG. 3K: adipose tissue and livers were collected and weighed after rmIL-27 treatment for 15 days (n=6), and GTT (FIG. 3L, n=6) and ITT (FIG. 3M, n=4) tests were performed after rmIL-27 treatment for 15 days. […]

EBI-3 KO mice = test: cold stimulation experiment at 4° C. after rmIL-27 treatment of EBI-3 KO mice; type: in vivo, mouse; conditions: rmIL-27 100 μg/kg intraperitoneally for 7 consecutive days, then cold stimulation at 4° C.
Procedure: Cold stimulation experiments were performed in a temperature controlled cold room. Mice were placed individually in individual cages (without bedding) at 4° C. The mice had free access to food and water. Rectal core body temperatures were recorded every 2 hours using a digital thermometer and a rectal thermocouple probe (TH-212, HICHANCE, China). If the core body temperature fell below 20° C., the individual mice were euthanized and scored as events for survival analysis.
8-week-old WT mice were fed with HFD for 32 weeks and randomly divided into 2 groups. The mice were injected intraperitoneally with rmIL-27 (100 μg/kg) or PBS for 15 consecutive days, and then, metabolic analysis was performed. 12-month-old EBI-3 KO mice were randomly divided into 2 groups, and injected intraperitoneally with rmIL-27 (100 μg/kg) or PBS for 7 consecutive days. The mice were then subjected to a cold stimulation experiment at 4° C.
As for FIG. 7A-FIG. 7C: 8-week-old Il27ra^f/f and Ucp1-Cre Il27ra^f/f mice were fed with HFD for 10 weeks. After HFD treatment for 10 weeks, GTT (FIG. 7A) and ITT (FIG. 7B) (n=5-6) tests were performed, and adipose tissue and livers were collected and weighed (FIG. 7C, n=5-6). […] Expression of UCP1 was detected by immunoblot. […] Expression of UCP1 or PPARα was analyzed by an immunoblot. […] A band density was quantified and normalized with ImageJ. […]

[1] = 0-120 min, immunoblot (FIG. 3B)

B1: IL-27: Recombinant mouse IL-27 (EBI-3/p28 heterodimer cytokine), purchased from Biolegend (577408) (protein, UniProt O35228 19-228; Q8K3I6 29-234, looked up)
Interleukin-27 subunit beta: YTETALVALSQPRVQCHASRYPVAVDCSWTPLQAPNSTRSTSFIATYRLGVATQQQSQPCLQRSPQASRCTIPDVHLFSTVPYMLNVTAVHPGGASSSLLAFVAERIIKPDPPEGVRLRTAGQRLQVLWHPPASWPFPDIFSLKYRLRYRRRGASHFRQVGPIEATTFTLRNSKPHAKYCIQVSAQDLTDYGKPSDWSLPGQVESAPHKP
Interleukin-27 subunit alpha: FPTDPLSLQELRREFTVSLYLARKLLSEVQGYVHSFAESRLPGVNLDLLPLGYHLPNVSLTFQAWHHLSDSERLCFLATTLRPFPAMLGGLGTQGTWTSSEREQLWAMRLDLRDLHRHLRFQVLAAGFKCSKEEEDKEEEEEEEEEEKKLPLGALGGPNQVSSQVSWPQLLYTYQLLHSLELVLSRAVRDLLLLSLPRRPGSAWDS
Phosphorylation of p38 MAPK (primary beige adipocytes; [1]): significantly increased | pSTAT3 (primary beige adipocytes; [1]): only transiently induced and rapidly regressed | expression of UCP1 (primary beige adipocytes; 24 hours, immunoblot (FIG. 3A)): significantly increased | expression of peroxisome proliferator-activated receptor α (PPARα) (primary beige adipocytes; 24 hours, immunoblot (FIG. 3A)): up-regulated | expression of peroxisome proliferator-activated receptor γ co-activator 1α (PGC-1α) (primary beige adipocytes; 24 hours, immunoblot (FIG. 3A)): up-regulated | activation of ATF2 (primary beige adipocytes; immunoblot (FIG. 3A-3C)): enhanced | UCP1-mediated heat generation (EBI-3 KO mice): improved | body temperature / hypothermia in cold stimulation (EBI-3 KO mice; rectal temperature): avoided low temperatures; also recorded: reverse hypothermia
